# Test results as given in patent publication US6977175 (MIT, dated 2005).
# T1: LIN-15B protein (C. elegans, UniProt Q27395 1-1440, limits assumed)
# T1 construct: Tested in a yeast two-hybrid assay; The fusion partners and construct limits are not described
# T1 sequence (looked up): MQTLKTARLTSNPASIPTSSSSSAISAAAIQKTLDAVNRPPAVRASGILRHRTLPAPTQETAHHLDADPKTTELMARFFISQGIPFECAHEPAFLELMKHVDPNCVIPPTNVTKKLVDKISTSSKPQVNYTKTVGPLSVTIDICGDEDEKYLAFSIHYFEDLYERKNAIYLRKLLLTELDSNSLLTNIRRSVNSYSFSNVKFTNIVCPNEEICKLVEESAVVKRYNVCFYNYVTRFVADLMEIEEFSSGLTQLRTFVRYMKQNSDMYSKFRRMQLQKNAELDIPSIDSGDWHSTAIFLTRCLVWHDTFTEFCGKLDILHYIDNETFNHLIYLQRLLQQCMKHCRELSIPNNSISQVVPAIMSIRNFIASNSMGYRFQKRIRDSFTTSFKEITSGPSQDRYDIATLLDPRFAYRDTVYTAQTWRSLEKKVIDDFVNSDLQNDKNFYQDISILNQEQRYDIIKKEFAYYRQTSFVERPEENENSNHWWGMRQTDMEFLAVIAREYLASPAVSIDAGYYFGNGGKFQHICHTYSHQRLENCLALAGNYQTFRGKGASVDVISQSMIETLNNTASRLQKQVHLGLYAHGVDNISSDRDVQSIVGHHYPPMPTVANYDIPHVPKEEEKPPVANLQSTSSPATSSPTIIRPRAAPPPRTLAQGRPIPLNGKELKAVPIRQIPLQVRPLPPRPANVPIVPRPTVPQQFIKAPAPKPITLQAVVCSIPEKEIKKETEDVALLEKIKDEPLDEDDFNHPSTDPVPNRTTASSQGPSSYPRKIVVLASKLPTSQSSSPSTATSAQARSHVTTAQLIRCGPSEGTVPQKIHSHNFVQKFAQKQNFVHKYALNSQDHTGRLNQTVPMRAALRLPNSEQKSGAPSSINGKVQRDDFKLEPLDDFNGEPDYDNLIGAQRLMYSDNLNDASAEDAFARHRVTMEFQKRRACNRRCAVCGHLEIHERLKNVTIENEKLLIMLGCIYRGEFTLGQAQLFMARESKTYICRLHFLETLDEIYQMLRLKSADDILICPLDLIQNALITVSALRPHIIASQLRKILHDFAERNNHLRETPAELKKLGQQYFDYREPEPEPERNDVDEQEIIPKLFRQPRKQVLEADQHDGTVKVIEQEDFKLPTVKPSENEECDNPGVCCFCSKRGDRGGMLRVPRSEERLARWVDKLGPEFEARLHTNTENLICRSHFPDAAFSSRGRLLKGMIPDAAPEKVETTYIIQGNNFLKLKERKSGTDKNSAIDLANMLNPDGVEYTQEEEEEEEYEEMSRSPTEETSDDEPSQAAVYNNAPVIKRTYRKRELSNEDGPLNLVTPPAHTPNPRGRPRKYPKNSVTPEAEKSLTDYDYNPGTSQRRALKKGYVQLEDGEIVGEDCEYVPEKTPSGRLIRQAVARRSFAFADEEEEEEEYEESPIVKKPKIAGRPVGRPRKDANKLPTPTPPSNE
# B1: LIN-15A protein (other, C. elegans, UniProt Q27365 1-719, looked up)
# chain: MLAPAAPAKDVVSADEKEEIIAKRKFRMKNVDAMRMSSLANDRMAFNKKCNALAMKFVKSAGIGTDALQLTCFQELVRHFNPIAAVVVGVKREPNSNVQAEKKTIPKVKTIQTPTQSMESVRLLQEKKASATEEQSAESASIMKHFANTIPNSTPTQSVKDVLTAAASKGQFKSSAEIFSHFPSEPSPSKPRATREGSQPSDYTYCTYLTPCILCEKALLMRESIAMTDNEAVKVLMAAVMSGHFRMATAEKAIRHERLRMCYDHVDFVYEMMCDAFEAKTESEINEMPPDRLMRGHDIYRALKRVGDLHKGKVTSNTPLYSFKNSIKSYYRNHVPRMVNGSLSKPSPKPFSELVALLQSVPPSTNLNELLNHNLSLSDADKQELIQLINGKDNRFTSRRRKIEDILDNKFAAAAAKAYRDHSEDAPSEPYIPNQSEMQNTVERRKRKLHSPEQDDAGSSSISWNAKKTKTPIDYVHLATRVLEGHSIADEALLHKSKVSYARNAFGEKPSSPTPPSAPLKFCVVNGKKYLRFENGTGPPKVVVQGNVVLRTNTLKDALTTAPRAQNQPSTSTDSSSSSEMEGIRQSFGAPQKEEEEEELVPTLLQNKPTHVESSSPVEKKPPTKTNVEKPAVRLGRMLTTAFGSMSYRTRKSVENKTDLLNQPTSASPRRMIKVVRNRNPHLAKQVAAAPSEPKHIPPTHMEKKPEELLMDPKPEPIF
# notes: Tested in a yeast two-hybrid assay; The fusion partners and construct limits are not described
# Assays:
# LIN-15A protein = target: B1; experiment: yeast two-hybrid
# LIN-15B protein = target: T1, LIN-15B protein; experiment: yeast two-hybrid
binding result (LIN-15A protein),binding result (LIN-15B protein),Binder
no binding,no binding,"LIN-9 protein (other, C. elegans, UniProt P30630 1-644, looked up, Tested in a yeast two-hybrid assay; The fusion partners and construct limits are not described) MSSAVRSPRKKAASDTSDPDRTSSPYSLRETSKVPSRYRNEELYLSPSRSIKRTGSPKKSPAKRLNGGRDSPSVNSLTRNSSLTMLAKAALDYESSSCALEYIFQPKEERRPPRRALALSPPPAPSNDLLAKDLEMIEMHQNLVAGLDDLDNPANMTNEAVEHRDTQSFFNMFSTDQERSAMMKQFKTYKNQTSEDVSTFMRANIKKLYNLLRYKKARQWVMCEFFYSAIDEQIFKEENEFATIIRESFPNLKNWNLTRIEWRSIRKLLGKPRRCSKVFFEEERMYLEEKRMKIRSVYEGSYLNDPSIDLKDLPAKLPRPMVVGNRVFARIRNPYDGIYSGIIDAVIPKGFRIIFDKPDIPPTLVSDTEILLDGKLDLLSIAYFIEQANSKLPSGVRPFVAAVRDSSHPHLVRDVLVSRKIERSGGPLMGPNDERLNGKNAEMVGNFPLKFLVNLVKLTKLIDIKKGLIRQLNELNADAEIQNMTSDKYSKAFQEKYAKTIIDLEHVNQNIDINMNGIQDHHMYFSSNDISTSNMKPEAVRQMCSQQAGRFVEHCNQGLNVENVHALTLIQSLTAVLLQVRTMGTQKISAVDLQSLGDAISEIRTAIHPRNVAFFQDYVEVHMKQFHTIMLESGALAGTVSNRK"
,no binding,B1
